# Results taken from patent US20260347441 (published 2026).
# B1: ABC3315 (antibody, V domains shown)
# VH: EVQLVESGGGLVKPGGSLKLSCAASGFTFSGYAMSWFRQAPEKRLEWVATISSGGSYTYYLDSVKGRFTISRDNSKNTLYLQMSSLRSEDTAVYYCLASLITTDYFEYWGQGTLVTVSS
# VL: DIVMTQSPSSLSASVGDRVTITCRASQDVGTAVAWYQQKPGQSPKLLIYWASTRHTGVPDRFSGSGSGTDFTLTISGLQSEDEADYFCQQYSNYPYTFGGGTKLEIKR
# modifications: peg12-biotin conjugated, immobilized on streptavidin; vc-MMAE conjugate (ADC)
# B2: ABC3315-WEDD (antibody, V domains shown)
# VH: B1 VH
# VL: B1 VL
# B3: ABC3315-WE (antibody, V domains shown)
# VH: B1 VH
# VL: B1 VL
# Assays:
# polatuzumab vedotin = polatuzumab vedotin (humanized); assay: SPR
# human serum albumin = human serum albumin (human, UniProt P02768); assay: SPR
# polatuzumab vedotin (humanized), sequence (VH, as listed by the source, chain 1 of 2): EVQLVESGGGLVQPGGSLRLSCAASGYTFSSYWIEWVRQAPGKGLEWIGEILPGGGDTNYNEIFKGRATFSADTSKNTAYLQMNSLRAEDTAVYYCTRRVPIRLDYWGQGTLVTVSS
# polatuzumab vedotin (humanized), sequence (VL, as listed by the source, chain 2 of 2): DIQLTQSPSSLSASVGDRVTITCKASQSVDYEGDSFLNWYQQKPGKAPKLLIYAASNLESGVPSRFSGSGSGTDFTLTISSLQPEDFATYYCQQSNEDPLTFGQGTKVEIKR
Binder,binding result (polatuzumab vedotin),Kd (human serum albumin)
B1,no binding,
B2,,2.34 µM
B3,,10.5 µM
